Data from article PMC6223037, “Dye-decolorizing peroxidases in Irpex lacteus combining the catalytic properties of heme peroxidases and laccase play important roles in ligninolytic system” (Biotechnology for Biofuels, 2018).

B1: IlDyP2 (Irpex lacteus) (protein)
chain: YHVKRARSSPLIGSFPGQPPLPTIAEVQSSSAGNDSLPFENIQGDILVGMKKDKEKFVFFHINNATTFKSFLKTYAPANITSVQTIIGPASGQPQAFVNLAFSHTGFGALGVADDLQDTAFTAGQFADAPSFGDDTSTWEEAFKGTNVDGVFLIGSDDVTTTNQYRDDLKAKLGDAWTVLLDLDSAARPGAEKGHEHFGYLDGISNPTIPGFGTPFPGQAVVDSGVIFAGRTNDPVTNRPSWALDGSFLVFRKLKQLVPEFHKWTLDNALQNQAGNLTVEEGALLLGSRMFGRWNSGAPIDLTPDVDDPTLGNDPQRNNDFNYIHPGEDLTTDETRCPFTAHVRKTNPRDLEAQGLIPDLFHAIRAGTPYGPEVTDAESNSNTTSIDRGLAFVEYQSVISNGFRFQQLNWANNANFPFNKSEPLGLDPVIGQGTRQTFGLDPRNASDSLTIPQIIISNGGEYFFSPSITALVEHFGA
B2: IlDyP1 (Irpex lacteus) (protein)
chain: YHVKRARTTSLLGSFPGQGALPTVAQVQSTSSGNDSLPLENIQGDILVGMKKQKEQFVFFHINNATTFKKVLKTYAPANITSIQTLLSAPSAQPLAFVNLAFSQSGATALGVTDDLGDSFFSAGQFADASALGDDTSNWDSTFTGTDVHGVFLIGSDETSFVEQYQSDLEAKLGDAWTVSLTIASAARPGDEAGHEHFGYLDGISNPTITGFGTALPGQSVVDPGIILAGRTGDTVSRPSWALDGSFLVFRKLKQLVPEFNKWTLANAIQNASGNLTAQEGADLLGSRMFGRWKSGAPIDLSPDVDDASLGTDPQRNNNFNYTHAGSDITSDESRCPFSAHIRKTNPRDLESVIGHANHAIRAGTPYGPELTDDESSSGTTSTDRGLAFVEYQSNIGNGFRTQQEVWANAAAFPFGKTESIGLDPVIGQGDRTTYGLNAQNVTESYSVPSFVISNGGEYFFSPSITALVETFAA

Experiments:
[1] = substrate: COc1cccc(OC)c1O; assay: peroxidase oxidation, spectrophotometric; nonlinear fit; type: biochemical, Irpex lacteus; details: pH 3, 25 °C, 50 mM sodium tartrate, co-substrate H2O2
Source text: (§1) peroxidase oxidation, spectrophotometric; nonlinear fit on IlDyP2

[2] = substrate: CCn1c(=NN=c2sc3cc(S(=O)(=O)O)ccc3n2CC)sc2cc(S(=O)(=O)O)ccc21; assay: as above; type: biochemical, Irpex lacteus; details: pH 3, 25 °C, 50 mM sodium tartrate, co-substrate H2O2
Source text: as §1

purified protein = substrate: COc1ccccc1O; assay: purified protein; details: 50 mM sodium tartrate
[3] = substrate: COc1cccc(OC)c1O; assay: peroxidase oxidation, spectrophotometric; nonlinear fit; type: biochemical, Irpex lacteus; details: pH 4, 25 °C, 50 mM sodium tartrate, co-substrate H2O2
Source text: (§2) peroxidase oxidation, spectrophotometric; nonlinear fit on IlDyP1

[4] = substrate: CCn1c(=NN=c2sc3cc(S(=O)(=O)O)ccc3n2CC)sc2cc(S(=O)(=O)O)ccc21; assay: as above; type: biochemical, Irpex lacteus; details: pH 4, 25 °C, 50 mM sodium tartrate, co-substrate H2O2
Source text: as §2

[5] = pH 3, 25 °C, co-substrate H2O2, pH 3.0
[6] = pH 4, 25 °C, co-substrate H2O2, pH 4.0

Protein | Km [1] [µM] | kcat [1] [s⁻¹] | kcat/Km [1] [M⁻¹ s⁻¹] | Km [2] [µM] | kcat [2] [s⁻¹] | kcat/Km [2] [M⁻¹ s⁻¹] | Km (purified protein; [5]) [µM] | kcat (purified protein; [5]) [s⁻¹] | kcat/Km (purified protein; [5]) [M⁻¹ s⁻¹] | Km [3] [µM] | kcat [3] [s⁻¹] | kcat/Km [3] [M⁻¹ s⁻¹] | Km [4] [µM] | kcat [4] [s⁻¹] | kcat/Km [4] [M⁻¹ s⁻¹] | Km (purified protein; [6]) [µM] | kcat (purified protein; [6]) [s⁻¹] | kcat/Km (purified protein; [6]) [M⁻¹ s⁻¹]
B1 | 1631.7 ± 10.9 | 561 ± 19.3 | 340000 ± 20000 | 125.0 ± 1.4 | 396 | 3.2e+06 | 229.1 ± 15.9 | 49.7 | 220000 |  |  |  |  |  |  |  |  | 
B2 |  |  |  |  |  |  |  |  |  | 892.7 ± 81.5 | 199 ± 12.6 | 220000 ± 10000 | 693.1 ± 8.5 | 356 ± 11.2 | 510000 ± 10000 | 592.1 ± 53.0 | 49.2 | 83000
